These are literature values, as cited in publication PMC7076691.

Broadly, the Kd is the equilibrium constant for the complex coming apart.

In this data set the target is Bfd (Pseudomonas aeruginosa) (UniProt Q9HY80).
Sequence of UniProt Q9HY80 (Q9HY80 whole entry): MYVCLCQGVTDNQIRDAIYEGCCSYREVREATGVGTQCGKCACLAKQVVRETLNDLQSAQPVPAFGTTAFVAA

For the substance BfrB (from UniProt Q9HY79), the Kd was 3000 nM.
